# Measured values taken from PMC3285272 (Cell, 2012).
# T1: full-length γζ-COP dimer (B. taurus, UniProt P53620 1-874; P35604 1-177)
# T1 sequence (looked up) 1: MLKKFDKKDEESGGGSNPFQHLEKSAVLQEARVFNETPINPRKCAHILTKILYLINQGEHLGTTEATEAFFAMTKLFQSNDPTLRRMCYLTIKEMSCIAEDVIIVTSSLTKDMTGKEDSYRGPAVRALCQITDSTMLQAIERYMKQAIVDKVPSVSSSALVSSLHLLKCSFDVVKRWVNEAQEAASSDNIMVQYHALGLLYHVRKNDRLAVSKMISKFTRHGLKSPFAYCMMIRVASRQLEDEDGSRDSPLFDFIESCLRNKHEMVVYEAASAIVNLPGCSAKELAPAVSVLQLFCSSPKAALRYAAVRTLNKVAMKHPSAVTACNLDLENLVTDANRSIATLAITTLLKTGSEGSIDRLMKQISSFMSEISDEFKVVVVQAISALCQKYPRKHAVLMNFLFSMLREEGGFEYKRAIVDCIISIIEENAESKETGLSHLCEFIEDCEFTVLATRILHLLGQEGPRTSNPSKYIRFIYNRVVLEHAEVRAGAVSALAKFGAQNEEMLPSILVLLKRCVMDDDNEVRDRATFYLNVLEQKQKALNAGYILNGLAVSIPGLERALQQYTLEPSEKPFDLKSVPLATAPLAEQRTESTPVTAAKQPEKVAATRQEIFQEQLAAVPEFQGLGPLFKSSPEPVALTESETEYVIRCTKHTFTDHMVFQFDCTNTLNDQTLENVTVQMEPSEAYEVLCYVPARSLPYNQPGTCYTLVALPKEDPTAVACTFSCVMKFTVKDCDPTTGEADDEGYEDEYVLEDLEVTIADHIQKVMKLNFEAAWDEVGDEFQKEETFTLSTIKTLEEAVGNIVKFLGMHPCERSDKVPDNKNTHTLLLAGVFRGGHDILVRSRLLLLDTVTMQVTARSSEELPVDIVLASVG
# T1 sequence (looked up) 2: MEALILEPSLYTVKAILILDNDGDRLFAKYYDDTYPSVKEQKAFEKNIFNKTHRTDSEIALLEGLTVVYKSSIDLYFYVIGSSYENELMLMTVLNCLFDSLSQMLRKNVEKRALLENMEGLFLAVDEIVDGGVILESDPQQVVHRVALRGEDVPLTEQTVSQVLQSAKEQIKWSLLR
# T2: γζ-COP core complex (bovine γ-COP 1–355 plus ζ-COP 1–153) (B. taurus, UniProt P53620 1-355; P35604 1-153)
# T2 sequence (looked up) 1: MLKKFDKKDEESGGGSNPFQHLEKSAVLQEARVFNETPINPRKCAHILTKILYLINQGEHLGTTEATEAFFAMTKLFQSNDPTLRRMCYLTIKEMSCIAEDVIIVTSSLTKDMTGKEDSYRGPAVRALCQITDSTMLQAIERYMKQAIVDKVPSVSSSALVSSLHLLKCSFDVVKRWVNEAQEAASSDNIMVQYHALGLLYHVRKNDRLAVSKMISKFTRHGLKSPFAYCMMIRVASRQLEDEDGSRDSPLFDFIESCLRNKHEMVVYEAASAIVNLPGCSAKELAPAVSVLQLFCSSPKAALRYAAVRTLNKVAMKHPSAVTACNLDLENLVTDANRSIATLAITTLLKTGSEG
# T2 sequence (looked up) 2: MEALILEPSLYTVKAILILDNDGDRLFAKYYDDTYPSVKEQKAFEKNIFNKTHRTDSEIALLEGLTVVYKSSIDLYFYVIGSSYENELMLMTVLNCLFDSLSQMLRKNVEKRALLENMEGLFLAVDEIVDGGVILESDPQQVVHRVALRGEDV
# B1: S. cerevisiae Arf1 (residues 18–181) I43E with a C-terminal GST tag (domain or fragment, UniProt P11076 18-181, looked up)
# chain: MRILMVGLDGAGKTTVLYKLKLGEVETTIPTIGFNVETVQYKNISFTVWDVGGQDRIRSLWRHYYRNTEGVIFVVDSNDRSRIGEAREVMQRMLNEDELRNAAWLVFANKQDLPEAMSAAEITEKLGLHSIRNRPWFIQATCATSGEGLYEGLEWLSNSLKNST
# Key:
# [1] = molecular target: full-length βδ/γζ-COP complex (R. norvegicus | B. taurus, UniProt P23514 1-953; P53619 1-511; P53620 1-874; P35604 1-177); assay: GTPase fluorescence assay
# full-length γζ-COP dimer = molecular target: T1, full-length γζ-COP dimer; assay: pull-down
# [2] = molecular target: T2, γζ-COP core complex (bovine γ-COP 1–355 …); assay: crystal structure
# [3] = molecular target: B1; assay: pull-down
binder,measurement,setting,value
H. sapiens Arf1 (residues 18–181) (domain or fragment) not shown,Kd,[1],~1000 nM
B1,binding result,full-length γζ-COP dimer,binds
"S. cerevisiae Arf1 (residues 18–181) complexed with GppNHp (domain or fragment, UniProt P11076 18-181, looked up) MRILMVGLDGAGKTTVLYKLKLGEVITTIPTIGFNVETVQYKNISFTVWDVGGQDRIRSLWRHYYRNTEGVIFVVDSNDRSRIGEAREVMQRMLNEDELRNAAWLVFANKQDLPEAMSAAEITEKLGLHSIRNRPWFIQATCATSGEGLYEGLEWLSNSLKNST",binding result,[2],binds
"full-length βδ-COP dimer (complex, R. norvegicus | B. taurus) chain 1: MTAAENVCYTLINVPMDSEPPSEISLKNDLEKGDVKSKTEALKKVIIMILNGEKLPGLLMTIIRFVLPLQDHTIKKLLLVFWEIVPKTTPDGRLLHEMILVCDAYRKDLQHPNEFIRGSTLRFLCKLKEAELLEPLMPAIRACLEHRHSYVRRNAVLAIYTIYRNFENLIPDAPELIHDFLVNEKDASCKRNAFMMLIHADQDRALDYLSTCIDQVQTFGDILQLVIVELIYKVCHANPSERARFIRCIYNLLQSSSPAVKYEAAGTLVTLSSAPTAIKAAAQCYIDLIIKESDNNVKLIVLDRLVELKEHPAHERVLQDLVMDILRVLSTPDLEVRKKTLQLALDLVSSRNVEELVIVLKKEVIKTNNVSEHEDTDKYRQLLVRTLHSCSVRFPDMAANVIPVLMEFLSDSNEAAAADVLEFVREAIQRFDNLRMLIVEKMLEVFHAIKSVKIYRGALWILGEYCSTKEDIQSVMTEVRRSLGEIPIVESEIKKEAGELKPEEEITVGPVQKLVTEMGTYATQSALSSSRPTKKEEDRPPLRGFLLDGDFFVAASLATTLTKIALRYVALVQEKKKQNSFVAEAMLLMATILHLGKSSLPKKPITDDDVDRISLCLKVLSECSPLMNDIFNKECRQSLSQMLSAKLEEEKLSQKKESEKRNVTVQPDDPISFMQLTAKNEMNCKEDQFQLSLLAAMGNTQRKEAADPLASKLNKVTQLTGFSDPVYAEAYVHVNQYDIVLDVLVVNQTSDTLQNCTLELATLGDLKLVEKPSPLTLAPHDFANIKANVKVASTENGIIFGNIVYDVSGAASDRNCVVLSDIHIDIMDYIQPATCTDAEFRQMWAEFEWENKVTVNTNVTDLNDYLQHILKSTNMKCLTPEKALSGYCGFMAANLYARSIFGEDALANVSIEKPVHQGPDAAVTGHIRIRAKSQGMALSLGDKINLSQKKTSL chain 2: MVLLAAAVCTKAGKAIVSRQFVEMTRTRIEGLLAAFPKLMNTGKQHTFVETESVRYVYQPMEKLYMVLITTKNSNILEDLETLRLFSRVIPEYCRALEENEISEHCFDLIFAFDEIVALGYRENVNLAQIRTFTEMDSHEEKVFRAVRETQEREAKAEMRRKAKELQQARRDAERQGKKAPGFGGFGSSTVSGGSTTSMITETIIETDKPKVAPAPARPSGPSKALKLGAKGKEVDNFVDKLKSEGENIISSNMGKRTSEATKVHAPPINMESVHMKIEEKITLTCGRDGGLQNMELHGMIMLRISDDKFGRIRLHVENEDKKGVQLQTHPNVDKKLFTAESLIGLKNPEKSFPVNSDVGVLKWRLQTTEESFIPLTINCWPSESGNGCDVNIEYELQEDNLELNDVVITIPLPSGVGAPVIGEIDGEYRHDSRRNTLEWCLPVIDAKNKSGSLEFSIAGQPNDFFPVQVSFISKKNYCNIQVTKVTQVDGNSPVRFSTETTFLVDKYEIL",percent binding capacity relative to wild-type Arf1,[3],90%
